According to US20250352667A1:

Experiments:
[1] = molecular target: KEAP1 (wild-type full-length), His-tagged (human) (UniProt Q14145); test: AlphaScreen; 307.2 nM FLAG-NRF2, 150 nM His-KEAP1; Rep 1; control for I86V
[2] = molecular target: KEAP1 (wild-type full-length), His-tagged (human) (UniProt Q14145); test: AlphaScreen; 1228.8 nM FLAG-NRF2, 150 nM His-KEAP1; Rep 2; control for I86V
[3] = molecular target: KEAP1 (wild-type full-length), His-tagged (human) (UniProt Q14145); test: AlphaScreen; NRF2 wt isoform 1 19.2 nM, KEAP1 150 nM; set as the 100 % reference for I86V
[4] = molecular target: KEAP1 (wild-type full-length), His-tagged (human) (UniProt Q14145); test: AlphaScreen; NRF2 wt isoform 1 19.2 nM, KEAP1 150 nM; set as the 100 % reference for Q75R
[5] = molecular target: KEAP1 (wild-type full-length), His-tagged (human) (UniProt Q14145); test: AlphaScreen; 4.8 nM FLAG-NRF2, 150 nM His-KEAP1; signal against NRF2 only; control for I28V
[6] = molecular target: KEAP1 (wild-type full-length), His-tagged (human) (UniProt Q14145); test: AlphaScreen; 9.6 nM FLAG-NRF2, 150 nM His-KEAP1; signal against NRF2 only; control for I28V
[7] = molecular target: KEAP1 (wild-type full-length), His-tagged (human) (UniProt Q14145); test: AlphaScreen; 614.4 nM FLAG-NRF2, 150 nM His-KEAP1; signal against NRF2 only; control for I86V
[8] = molecular target: KEAP1 (wild-type full-length), His-tagged (human) (UniProt Q14145); test: AlphaScreen; FLAG-NRF2 wt isoform 1 19.2 nM, His-KEAP1 150 nM; Rep 1; positive control for I86V
[9] = molecular target: KEAP1 (wild-type full-length), His-tagged (human) (UniProt Q14145); test: AlphaScreen; FLAG-NRF2 wt isoform 1 76.8 nM, His-KEAP1 150 nM; Rep 2; positive control for Q75R
[10] = molecular target: KEAP1 (wild-type full-length), His-tagged (human) (UniProt Q14145); test: AlphaScreen; FLAG-NRF2 wt isoform 1 614.4 nM, His-KEAP1 150 nM; Rep 1; positive control for Q75R
[11] = molecular target: KEAP1 (wild-type full-length), His-tagged (human) (UniProt Q14145); test: AlphaScreen; mean over 9.6, 19.2 and 38.4 nM NRF2 wt isoform 1, KEAP1 150 nM; reference for Q75R
[12] = molecular target: KEAP1 (wild-type full-length), His-tagged (human) (UniProt Q14145); test: AlphaScreen; FLAG-NRF2 wt isoform 1 1228.8 nM, His-KEAP1 150 nM; Rep 2; positive control for Q75R
[13] = molecular target: KEAP1 (wild-type full-length), His-tagged (human) (UniProt Q14145); test: AlphaScreen; FLAG-NRF2 wt isoform 1 38.4 nM, His-KEAP1 150 nM; Repeat 2; positive control for Q75R
[14] = molecular target: KEAP1 (wild-type full-length), His-tagged (human) (UniProt Q14145); test: AlphaScreen; NRF2 wt isoform 1 4.8 nM, KEAP1 150 nM; signal against NRF2-only control; control for Q75R
[15] = molecular target: KEAP1 (wild-type full-length), His-tagged (human) (UniProt Q14145); test: AlphaScreen; 2.4 nM FLAG-NRF2, 150 nM His-KEAP1; Rep 2
[16] = molecular target: KEAP1 (wild-type full-length), His-tagged (human) (UniProt Q14145); test: AlphaScreen; 4.8 nM FLAG-NRF2, 150 nM His-KEAP1; Rep 1
[17] = molecular target: KEAP1 (wild-type full-length), His-tagged (human) (UniProt Q14145); test: AlphaScreen; 9.6 nM FLAG-NRF2, 150 nM His-KEAP1; Rep 1
[18] = molecular target: KEAP1 (wild-type full-length), His-tagged (human) (UniProt Q14145); test: AlphaScreen; 19.2 nM FLAG-NRF2, 150 nM His-KEAP1; Rep 2
[19] = molecular target: KEAP1 (wild-type full-length), His-tagged (human) (UniProt Q14145); test: AlphaScreen; 153.6 nM FLAG-NRF2, 150 nM His-KEAP1; Rep 2
[20] = molecular target: KEAP1 (wild-type full-length), His-tagged (human) (UniProt Q14145); test: AlphaScreen; 38.4 nM FLAG-NRF2, 150 nM His-KEAP1; Repeat 1 (same value as in Table 27)
[21] = molecular target: KEAP1 (wild-type full-length), His-tagged (human) (UniProt Q14145); test: AlphaScreen; FLAG-NRF2 I86V 76.8 nM, His-KEAP1 150 nM; Rep 3
[22] = molecular target: KEAP1 (wild-type full-length), His-tagged (human) (UniProt Q14145); test: AlphaScreen; FLAG-NRF2 I86V 307.2 nM, His-KEAP1 150 nM; Rep 3
[23] = molecular target: KEAP1 (wild-type full-length), His-tagged (human) (UniProt Q14145); test: AlphaScreen; NRF2 I86V 19.2 nM, KEAP1 150 nM; signal against NRF2-only control
[24] = molecular target: KEAP1 (wild-type full-length), His-tagged (human) (UniProt Q14145); test: AlphaScreen; NRF2 I86V 76.8 nM, KEAP1 150 nM; signal against NRF2-only control
[25] = molecular target: KEAP1 (wild-type full-length), His-tagged (human) (UniProt Q14145); test: AlphaScreen; FLAG-NRF2 Q75R 4.8 nM, His-KEAP1 150 nM; Rep 1
[26] = molecular target: KEAP1 (wild-type full-length), His-tagged (human) (UniProt Q14145); test: AlphaScreen; FLAG-NRF2 Q75R 1228.8 nM, His-KEAP1 150 nM; Rep 1
[27] = molecular target: KEAP1 (wild-type full-length), His-tagged (human) (UniProt Q14145); test: AlphaScreen; NRF2 Q75R 614.4 nM, KEAP1 150 nM; signal against NRF2-only control

KEAP1 (wild-type full-length), His-tagged (human), sequence (Q14145 2-624 limits assumed): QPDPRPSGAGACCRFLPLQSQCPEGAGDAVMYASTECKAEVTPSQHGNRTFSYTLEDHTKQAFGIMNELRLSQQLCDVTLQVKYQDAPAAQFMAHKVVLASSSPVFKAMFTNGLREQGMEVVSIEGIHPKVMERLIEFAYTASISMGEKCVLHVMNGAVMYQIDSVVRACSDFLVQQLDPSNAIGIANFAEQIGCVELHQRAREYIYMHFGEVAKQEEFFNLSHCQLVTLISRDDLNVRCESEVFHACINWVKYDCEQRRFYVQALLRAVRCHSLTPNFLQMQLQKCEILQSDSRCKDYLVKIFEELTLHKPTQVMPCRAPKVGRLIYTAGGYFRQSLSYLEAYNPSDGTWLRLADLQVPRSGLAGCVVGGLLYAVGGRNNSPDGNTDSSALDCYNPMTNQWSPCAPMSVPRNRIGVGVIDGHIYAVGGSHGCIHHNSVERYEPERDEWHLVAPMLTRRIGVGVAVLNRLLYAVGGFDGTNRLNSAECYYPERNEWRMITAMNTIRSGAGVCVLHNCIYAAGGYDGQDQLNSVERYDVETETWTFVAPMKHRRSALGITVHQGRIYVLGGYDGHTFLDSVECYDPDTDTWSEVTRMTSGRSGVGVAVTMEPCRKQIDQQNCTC

B1: NRF2 isoform 1 (wild-type full-length), FLAG-tagged (protein)
chain: MMDLELPPPGLPSQQDMDLIDILWRQDIDLGVSREVFDFSQRRKEYELEKQKKLEKERQEQLQKEQEKAFFAQLQLDEETGEFLPIQPAQHIQSETSGSANYSQVAHIPKSDALYFDDCMQLLAQTFPFVDDNEVSSATFQSLVPDIPGHIESPVFIATNQAQSPETSVAQVAPVDLDGMQQDIEQVWEELLSIPELQCLNIENDKLVETTMVPSPEAKLTEVDNYHFYSSIPSMEKEVGNCSPHFLNAFEDSFSSILSTEDPNQLTVNSLNSDATVNTDFGDEFYSAFIAEPSISNSMPSPATLSHSLSELLNGPIDVSDLSLCKAFNQNHPESTAEFNDSDSGISLNTSPSVASPEHSVESSSYGDTLLGLSDSEVEELDSAPGSVKQNGPKTPVHSSGDMVQPLSPSQGQSTHVHDAQCENTPEKELPVSPGHRKTPFTKDKHSSRLEAHLTRDELRAKALHIPFPVEKIINLPVVDFNEMMSKEQFNEAQLALIRDIRRRGKNKVAAQNCRKRKLENIVELEQDLDHLKDEKEKLLKEKGENDKSLHLLKKQLSTLYLEVFSMLRDEDGKPYSPSEYSLQQTRDGNVFLVPKSKKPDVKKN
B1 showed an A-counts [1] of 2640 A-counts, an A-counts [2] of 2770 A-counts and a Binding Percentage [3] of 100%. The Binding Percentage [4] was 100%, the S/N [5] was 3.2 and the S/N [6] was 4.1. For the same binder, the S/N [7] was 1.1, the A-counts (NRF2 plus KEAP1) [8] was 3300 A-counts and the A-counts (NRF2 plus KEAP1) [9] was 1420 A-counts. For the same binder, the A-counts (NRF2 plus KEAP1) [10] was 1650 A-counts, the Average Binding [11] was 100% and the A-counts (NRF2 plus KEAP1) [12] was 1360 A-counts. For the same binder, the A-counts (NRF2 plus KEAP1) [13] was 1450 A-counts and the S/N [14] was 2.5.

B2: NRF2 isoform 1 (I28V full-length), FLAG-tagged (protein)
chain: MMDLELPPPGLPSQQDMDLIDILWRQDVDLGVSREVFDFSQRRKEYELEKQKKLEKERQEQLQKEQEKAFFAQLQLDEETGEFLPIQPAQHIQSETSGSANYSQVAHIPKSDALYFDDCMQLLAQTFPFVDDNEVSSATFQSLVPDIPGHIESPVFIATNQAQSPETSVAQVAPVDLDGMQQDIEQVWEELLSIPELQCLNIENDKLVETTMVPSPEAKLTEVDNYHFYSSIPSMEKEVGNCSPHFLNAFEDSFSSILSTEDPNQLTVNSLNSDATVNTDFGDEFYSAFIAEPSISNSMPSPATLSHSLSELLNGPIDVSDLSLCKAFNQNHPESTAEFNDSDSGISLNTSPSVASPEHSVESSSYGDTLLGLSDSEVEELDSAPGSVKQNGPKTPVHSSGDMVQPLSPSQGQSTHVHDAQCENTPEKELPVSPGHRKTPFTKDKHSSRLEAHLTRDELRAKALHIPFPVEKIINLPVVDFNEMMSKEQFNEAQLALIRDIRRRGKNKVAAQNCRKRKLENIVELEQDLDHLKDEKEKLLKEKGENDKSLHLLKKQLSTLYLEVFSMLRDEDGKPYSPSEYSLQQTRDGNVFLVPKSKKPDVKKN
Work on B2 yielded an A-counts [15] of 696 A-counts, an A-counts [16] of 1120 A-counts and an A-counts [17] of 1570 A-counts. For the same binder, the A-counts [18] was 1700 A-counts, the A-counts [19] was 1440 A-counts and the A-counts [20] was 1690 A-counts.

B3: NRF2 isoform 1 (I86V full-length), FLAG-tagged (protein)
chain: MMDLELPPPGLPSQQDMDLIDILWRQDIDLGVSREVFDFSQRRKEYELEKQKKLEKERQEQLQKEQEKAFFAQLQLDEETGEFLPVQPAQHIQSETSGSANYSQVAHIPKSDALYFDDCMQLLAQTFPFVDDNEVSSATFQSLVPDIPGHIESPVFIATNQAQSPETSVAQVAPVDLDGMQQDIEQVWEELLSIPELQCLNIENDKLVETTMVPSPEAKLTEVDNYHFYSSIPSMEKEVGNCSPHFLNAFEDSFSSILSTEDPNQLTVNSLNSDATVNTDFGDEFYSAFIAEPSISNSMPSPATLSHSLSELLNGPIDVSDLSLCKAFNQNHPESTAEFNDSDSGISLNTSPSVASPEHSVESSSYGDTLLGLSDSEVEELDSAPGSVKQNGPKTPVHSSGDMVQPLSPSQGQSTHVHDAQCENTPEKELPVSPGHRKTPFTKDKHSSRLEAHLTRDELRAKALHIPFPVEKIINLPVVDFNEMMSKEQFNEAQLALIRDIRRRGKNKVAAQNCRKRKLENIVELEQDLDHLKDEKEKLLKEKGENDKSLHLLKKQLSTLYLEVFSMLRDEDGKPYSPSEYSLQQTRDGNVFLVPKSKKPDVKKN
Work on B3 yielded an A-counts (NRF2 plus KEAP1) [21] of 2560 A-counts, an A-counts (NRF2 plus KEAP1) [22] of 2140 A-counts and a S/N [23] of 4. It also gave a S/N [24] of 2.3.

B4: NRF2 isoform 1 (Q75R full-length), FLAG-tagged (protein)
chain: MMDLELPPPGLPSQQDMDLIDILWRQDIDLGVSREVFDFSQRRKEYELEKQKKLEKERQEQLQKEQEKAFFAQLRLDEETGEFLPIQPAQHIQSETSGSANYSQVAHIPKSDALYFDDCMQLLAQTFPFVDDNEVSSATFQSLVPDIPGHIESPVFIATNQAQSPETSVAQVAPVDLDGMQQDIEQVWEELLSIPELQCLNIENDKLVETTMVPSPEAKLTEVDNYHFYSSIPSMEKEVGNCSPHFLNAFEDSFSSILSTEDPNQLTVNSLNSDATVNTDFGDEFYSAFIAEPSISNSMPSPATLSHSLSELLNGPIDVSDLSLCKAFNQNHPESTAEFNDSDSGISLNTSPSVASPEHSVESSSYGDTLLGLSDSEVEELDSAPGSVKQNGPKTPVHSSGDMVQPLSPSQGQSTHVHDAQCENTPEKELPVSPGHRKTPFTKDKHSSRLEAHLTRDELRAKALHIPFPVEKIINLPVVDFNEMMSKEQFNEAQLALIRDIRRRGKNKVAAQNCRKRKLENIVELEQDLDHLKDEKEKLLKEKGENDKSLHLLKKQLSTLYLEVFSMLRDEDGKPYSPSEYSLQQTRDGNVFLVPKSKKPDVKKN
Binder B4 has an A-counts (NRF2 plus KEAP1) [25] of 826 A-counts, an A-counts (NRF2 plus KEAP1) [26] of 705 A-counts and a S/N [27] of 0.8.
